{
  "source": "paper PMC10095481",
  "about": "“Sequence-Dependent Interaction of the Human Papillomavirus E2 Protein with the DNA Elements on Its DNA Replication Origin”",
  "binders": {"B1": {"name": "recombinant full-length HPV type 11 E2 protein, P04015 1-367 (natural protein)", "chain": "MEAIAKRLDACQDQLLELYEENSIDIHKHIMHWKCIRLESVLLHKAKQMGLSHIGLQVVPPLTVSETKGHNAIEMQMHLESLAKTQYGVEPWTLQDTSYEMWLTPPKRCFKKQGNTVEVKFDGCEDNVMEYVVWTHIYLQDNDSWVKVTSSVDAKGIYYTCGQFKTYYVNFNKEAQKYGSTNHWEVCYGSTVICSPASVSSTVREVSIAEPTTYTPAQTTAPTVSACTTEDGVSAPPRKRARGPSTNNTLCVANIRSVDSTINNIVTDNYNKHQRRNNCHSAATPIVQLQGDSNCLKCFRYRLNDKYKHLFELASSTWHWASPEAPHKNAIVTLTYSSEEQRQQFLNSVKIPPTIRHKVGFMSLHLL"}, "B2": {"name": "BS1 3' mutant (dsDNA)", "DNA 1": "GGTTCAACCGAAAACGGTTACCCA", "DNA 2": "TGGGTAACCGTTTTCGGTTGAACC"}, "B3": {"name": "Non-specific (dsDNA)", "DNA 1": "TGGCGGACCCCACCCAGCCCCACGCGCA", "DNA 2": "TGCGCGTGGGGCTGGGTGGGGTCCGCCA"}, "B4": {"name": "BS1 (dsDNA)", "DNA 1": "GGTTCAACCGAAAACGGTTATATG", "DNA 2": "CATATAACCGTTTTCGGTTGAACC"}, "B5": {"name": "BS1 (50 bp) (dsDNA)", "DNA 1": "GGAGGGATTGAAAACTTTTCAACCGAAAACGGTTATATATAAACCAGCCC", "DNA 2": "GGGCTGGTTTATATATAACCGTTTTCGGTTGAAAAGTTTTCAATCCCTCC"}, "B6": {"name": "BS1+2 (50 bp) (dsDNA)", "DNA 1": "B5 DNA 1 with A3C, T8C, T9C, T16G, T17G", "DNA 2": "B5 DNA 2 with A34C, A35C, A42G, A43G, T48G"}, "B7": {"name": "BS2 (dsDNA)", "DNA 1": "GGAGGGACCGAAAACGGTTCAACC", "DNA 2": "GGTTGAACCGTTTTCGGTCCCTCC"}, "B8": {"name": "BS4 (dsDNA)", "DNA 1": "CTTGCAACCGTTTTCGGTTGCCCT", "DNA 2": "AGGGCAACCGAAAACGGTTGCAAG"}, "B9": {"name": "BS1 5' mutant (dsDNA)", "DNA 1": "CCTGCAACCGAAAACGGTTATATG", "DNA 2": "CATATAACCGTTTTCGGTTGCAGG"}, "B10": {"name": "BS1+2+E1BS (124 bp) (dsDNA)", "DNA 1": "GTAACCCACACCCTACATATTTCCTTCTTATACTTAATAACAATCTTATTTAAAAAAGAGGAGGGACCGAAAACGGTTCAACCGAAAACGGTTATATATAAACCAGCCCAAAAAATTAGCAGA", "DNA 2": "TCTGCTAATTTTTTGGGCTGGTTTATATATAACCGTTTTCGGTTGAACCGTTTTCGGTCCCTCCTCTTTTTTAAATAAGATTGTTATTAAGTATAAGAAGGAAATATGTAGGGTGTGGGTTAC"}, "B11": {"name": "BS1 5'+3' mutant (dsDNA)", "DNA 1": "CCTGCAACCGAAAACGGTTACCCA", "DNA 2": "TGGGTAACCGTTTTCGGTTGCAGG"}, "B12": {"name": "BS3 (dsDNA)", "DNA 1": "CCTGCAACCGGTTTCGGTTACCCA", "DNA 2": "TGGGTAACCGAAACCGGTTGCAGG"}, "B13": {"name": "BS4 with GTTT spacer (dsDNA)", "DNA 1": "CTTGCAACCGGTTTCGGTTGCCCT", "DNA 2": "AGGGCAACCGAAACCGGTTGCAAG"}},
  "key": {"[1]": {"target": "T1, recombinant full-length HPV type 11 E2 protein (human papillomavirus type 11), P04015", "T1 chain": "B1 chain", "assay": "dynamic light scattering; purified E2 in solution at low (≤0.1 mg/mL) protein concentration; solvent set as 10% glycerol; three separate measurements; monomer to dimer", "conditions": "remark: other sources report otherwise"}, "[2]": {"target": "T2, HPV-11 E2 (full length) (Human papillomavirus type 11, UniProt P04015 1-367)", "assay": "EMSA; EMSA: 10 mM HEPES pH 7.9, 50 mM NaCl, 4 mM MgCl2, 10% glycerol, 5 mM DTT, 0.2 mM EDTA, 0.1 mg/mL BSA, 10 ng/uL poly(dI-dC), 10 min 30 C", "conditions": "protein: recombinant; tags: N-terminal His (pET28a); chain copies: 2; label: 32P"}, "[3]": {"target": "T2, HPV-11 E2 (full length)", "assay": "EMSA; no complex at 80 nM E2; EMSA: 10 mM HEPES pH 7.9, 50 mM NaCl, 4 mM MgCl2, 10% glycerol, 5 mM DTT, 0.2 mM EDTA, 0.1 mg/mL BSA, 10 ng/uL poly(dI-dC), 10 min 30 C", "conditions": "protein: recombinant; tags: N-terminal His (pET28a); chain copies: 2; label: 32P"}, "[4]": {"target": "T2, HPV-11 E2 (full length)", "assay": "EMSA; 10 C; EMSA: 10 mM HEPES pH 7.9, 50 mM NaCl, 4 mM MgCl2, 10% glycerol, 5 mM DTT, 0.2 mM EDTA, 0.1 mg/mL BSA, 10 ng/uL poly(dI-dC), 10 min 30 C", "conditions": "protein: recombinant; tags: N-terminal His (pET28a); chain copies: 2; label: 32P"}, "[5]": {"target": "T2, HPV-11 E2 (full length)", "assay": "EMSA; 20 C; EMSA: 10 mM HEPES pH 7.9, 50 mM NaCl, 4 mM MgCl2, 10% glycerol, 5 mM DTT, 0.2 mM EDTA, 0.1 mg/mL BSA, 10 ng/uL poly(dI-dC), 10 min 30 C", "conditions": "protein: recombinant; tags: N-terminal His (pET28a); chain copies: 2; label: 32P"}, "[6]": {"target": "T2, HPV-11 E2 (full length)", "assay": "EMSA; 30 C; EMSA: 10 mM HEPES pH 7.9, 50 mM NaCl, 4 mM MgCl2, 10% glycerol, 5 mM DTT, 0.2 mM EDTA, 0.1 mg/mL BSA, 10 ng/uL poly(dI-dC), 10 min 30 C", "conditions": "protein: recombinant; tags: N-terminal His (pET28a); chain copies: 2; label: 32P"}, "[7]": {"target": "T2, HPV-11 E2 (full length)", "assay": "EMSA; 35 C; EMSA: 10 mM HEPES pH 7.9, 50 mM NaCl, 4 mM MgCl2, 10% glycerol, 5 mM DTT, 0.2 mM EDTA, 0.1 mg/mL BSA, 10 ng/uL poly(dI-dC), 10 min 30 C", "conditions": "protein: recombinant; tags: N-terminal His (pET28a); chain copies: 2; label: 32P"}, "[8]": {"target": "T2, HPV-11 E2 (full length)", "assay": "EMSA; 0 C; EMSA: 10 mM HEPES pH 7.9, 50 mM NaCl, 4 mM MgCl2, 10% glycerol, 5 mM DTT, 0.2 mM EDTA, 0.1 mg/mL BSA, 10 ng/uL poly(dI-dC), 10 min 30 C", "conditions": "protein: recombinant; tags: N-terminal His (pET28a); chain copies: 2; label: 32P"}, "[9]": {"target": "T2, HPV-11 E2 (full length)", "assay": "competition; unlabeled competitor vs 32P-BS1; EMSA: 10 mM HEPES pH 7.9, 50 mM NaCl, 4 mM MgCl2, 10% glycerol, 5 mM DTT, 0.2 mM EDTA, 0.1 mg/mL BSA, 10 ng/uL poly(dI-dC), 10 min 30 C", "conditions": "protein: recombinant; tags: N-terminal His (pET28a); chain copies: 2; label: 32P"}, "[10]": {"target": "T2, HPV-11 E2 (full length)", "assay": "EMSA; flank experiment WT; EMSA: 10 mM HEPES pH 7.9, 50 mM NaCl, 4 mM MgCl2, 10% glycerol, 5 mM DTT, 0.2 mM EDTA, 0.1 mg/mL BSA, 10 ng/uL poly(dI-dC), 10 min 30 C", "conditions": "protein: recombinant; tags: N-terminal His (pET28a); chain copies: 2; label: 32P"}, "[11]": {"target": "T2, HPV-11 E2 (full length)", "assay": "EMSA; apparent Kd; EMSA: 10 mM HEPES pH 7.9, 50 mM NaCl, 4 mM MgCl2, 10% glycerol, 5 mM DTT, 0.2 mM EDTA, 0.1 mg/mL BSA, 10 ng/uL poly(dI-dC), 10 min 30 C", "conditions": "protein: recombinant; tags: N-terminal His (pET28a); chain copies: 2; label: 32P"}, "[12]": {"target": "T2, HPV-11 E2 (full length)", "assay": "EMSA; single complex C1; EMSA: 10 mM HEPES pH 7.9, 50 mM NaCl, 4 mM MgCl2, 10% glycerol, 5 mM DTT, 0.2 mM EDTA, 0.1 mg/mL BSA, 10 ng/uL poly(dI-dC), 10 min 30 C", "conditions": "protein: recombinant; tags: N-terminal His (pET28a); chain copies: 2; label: 32P"}, "[13]": {"target": "T2, HPV-11 E2 (full length)", "assay": "EMSA; C1, C2 and C3 complexes; EMSA: 10 mM HEPES pH 7.9, 50 mM NaCl, 4 mM MgCl2, 10% glycerol, 5 mM DTT, 0.2 mM EDTA, 0.1 mg/mL BSA, 10 ng/uL poly(dI-dC), 10 min 30 C", "conditions": "protein: recombinant; tags: N-terminal His (pET28a); chain copies: 2; label: 32P"}, "[14]": {"target": "T2, HPV-11 E2 (full length)", "assay": "EMSA; spacer experiment WT (TTTT); EMSA: 10 mM HEPES pH 7.9, 50 mM NaCl, 4 mM MgCl2, 10% glycerol, 5 mM DTT, 0.2 mM EDTA, 0.1 mg/mL BSA, 10 ng/uL poly(dI-dC), 10 min 30 C", "conditions": "protein: recombinant; tags: N-terminal His (pET28a); chain copies: 2; label: 32P"}, "[15]": {"target": "T2, HPV-11 E2 (full length)", "assay": "EMSA; affinity similar to BS1+2; C1, C2 and C3; EMSA: 10 mM HEPES pH 7.9, 50 mM NaCl, 4 mM MgCl2, 10% glycerol, 5 mM DTT, 0.2 mM EDTA, 0.1 mg/mL BSA, 10 ng/uL poly(dI-dC), 10 min 30 C", "conditions": "protein: recombinant; tags: N-terminal His (pET28a); chain copies: 2; label: 32P"}},
  "note": "Positions count from the first letter of the chain named.",
  "data": [
    {"binder": "B1", "values": [
      {"measurement": "stoichiometry N", "setting": "[1]", "result": 2}
    ]},
    {"binder": "B2", "values": [
      {"measurement": "Kd", "setting": "[2]", "result": "7.6 ± 0.6", "unit": "nM"}
    ]},
    {"binder": "B3", "values": [
      {"measurement": "binding result", "setting": "[3]", "result": "no binding"}
    ]},
    {"binder": "B4", "values": [
      {"measurement": "Kd", "setting": "[4]", "result": "5.5 ± 1.5", "unit": "nM"},
      {"measurement": "Kd", "setting": "[5]", "result": "6.2 ± 1.4", "unit": "nM"},
      {"measurement": "Kd", "setting": "[6]", "result": "5.3 ± 0.4", "unit": "nM"},
      {"measurement": "Kd", "setting": "[7]", "result": "5.7 ± 1.1", "unit": "nM"},
      {"measurement": "Kd", "setting": "[8]", "result": "7.3 ± 0.7", "unit": "nM"},
      {"measurement": "Kd", "setting": "[9]", "result": "6.2 ± 1.4", "unit": "nM"},
      {"measurement": "Kd", "setting": "[10]", "result": "6 ± 0.7", "unit": "nM"},
      {"measurement": "Kd", "setting": "[11]", "result": "6.2 ± 0.9", "unit": "nM"}
    ]},
    {"binder": "B5", "values": [
      {"measurement": "Kd", "setting": "[12]", "result": "5.3 ± 0.6", "unit": "nM"}
    ]},
    {"binder": "B6", "values": [
      {"measurement": "Kd", "setting": "[13]", "result": "4.2 ± 0.3", "unit": "nM"}
    ]},
    {"binder": "B7", "values": [
      {"measurement": "Kd", "setting": "[9]", "result": "6 ± 0.6", "unit": "nM"},
      {"measurement": "Kd", "setting": "[11]", "result": "7.8 ± 0.7", "unit": "nM"}
    ]},
    {"binder": "B8", "values": [
      {"measurement": "Kd", "setting": "[9]", "result": "4.6 ± 0.4", "unit": "nM"},
      {"measurement": "Kd", "setting": "[14]", "result": "4.4 ± 0.4", "unit": "nM"},
      {"measurement": "Kd", "setting": "[11]", "result": "4.8 ± 0.7", "unit": "nM"}
    ]},
    {"binder": "B9", "values": [
      {"measurement": "Kd", "setting": "[2]", "result": "6.4 ± 0.6", "unit": "nM"}
    ]},
    {"binder": "B10", "values": [
      {"measurement": "binding result", "setting": "[15]", "result": "binds"}
    ]},
    {"binder": "B11", "values": [
      {"measurement": "Kd", "setting": "[2]", "result": "7.7 ± 1.7", "unit": "nM"}
    ]},
    {"binder": "B12", "values": [
      {"measurement": "Kd", "setting": "[11]", "result": "10.2 ± 1.7", "unit": "nM"}
    ]},
    {"binder": "B13", "values": [
      {"measurement": "Kd", "setting": "[2]", "result": "6.4 ± 0.6", "unit": "nM"}
    ]}
  ]
}
